# In the RNAGym collection of RNA variant scans (doi:10.7554/elife.80360):
# B1: HDV Ribozyme (parent)
# chain: GGCCGGCAUGGUCCCAGCCUCCUCGCUGGCGCCGGCUGGGCAACAUUCCGAGGGGACCGUCCCCUCGGUAAUGGCGAAUGGGACCCA
# Variants of: B1
# Experiment: self-cleavage, relative activity (ratio to wild type); higher = more cleavage; co-transcriptional
row,Variant,self-cleavage
1,GGCCGGCAUGGUCCCAGCCUCCUCGCUGGCCCCGGCUGGGCAACAUUCCGAGAGGACCGUCCCCUCGGUAAUGGCGAAUGGGACCCA [G31C G53A],0.572
2,GGCCGGCAUGGUCCCAUCCUCCUCGCUGGCGCCGGCUGGGCAACAUUCCGAGGGGACCGUCCCCUAGGUAAUGGCGAAUGGGACCCA [G17U C66A],0.684
3,GGCCGGCAUGGUCCCAGCCUCCUCACUGGCGCCGUCUGGGCAACAUUCCGAGGGGACCGUCCCCUCGGUAAUGGCGAAUGGGACCCA [G25A G35U],0.135
4,GGCCGGCAUGGUCCCAGCCUCCUCGCUGGCGCCGGCUGAGCAACAUUCCGAGGGGACCGUCCCCUCGGCAAUGGCGAAUGGGACCCA [G39A U69C],0.609
5,GGCCGGCAUGGUCCCAGCCUCCCCGCUGGCGCCGGCUGGGCAACAUUCCGAGGGGACCGUCCCGUCGGUAAUGGCGAAUGGGACCCA [U23C C64G],0.76
6,GGCCGUCAUGGUCCCAGCCUCCUCGCUGGCGCCGGCUGGGCAACAUUCCGAGGGGCCCGUCCCCUCGGUAAUGGCGAAUGGGACCCA [G6U A56C],0.665
7,GGCCGGCACGGUCCCAGCCUCCUCGCUGGCGCCGGCUGGGCAACAUUCCGAGGGGACCGUCCCCUCGGUAAUGACGAAUGGGACCCA [U9C G74A],0.653
8,GGCCGGCAUGGUCCCAGCCUCCGCGCUGGCGCCGGCUGGGCAACAUUCCGAGGGGACCGUCCCCUCGGUAAUGGCGAAUGGGACACA [U23G C85A],0.787
9,GGCCGGCAUGGUCCCAGCCUCCUCGCUGGCGCCGGCUGGGCAACAUUCCGAGGGGACCGUCCCCUCCGUAAUGGCGAAUGGGACCCC [G67C A87C],0.84
10,GGCCGGCAUGGUCCCAGCCUCCUCGUUGGCGCCGGCUGGCCAACAUUCCGAGGGGACCGUCCCCUCGGUAAUGGCGAAUGGGACCCA [C26U G40C],0.946
11,GGCCGGCAUGGUCCCAGCAUCCUCGCUGGCGCCGGCUGGGCAACAUUCCGAGGGGACCGUCCUCUCGGUAAUGGCGAAUGGGACCCA [C19A C63U],0.1
12,GGCCGGCAUGGUCCCAGCCUCCUCGCUGGCGCCGACUGGCCAACAUUCCGAGGGGACCGUCCCCUCGGUAAUGGCGAAUGGGACCCA [G35A G40C],0.163
13,GGCCAGCAUGGUCCCAUCCUCCUCGCUGGCGCCGGCUGGGCAACAUUCCGAGGGGACCGUCCCCUCGGUAAUGGCGAAUGGGACCCA [G5A G17U],0.123
14,GGCCGGCAUGGUCCCAGCCUCCUCUCUGGCGCCGGCUGGGCAACAUUCUGAGGGGACCGUCCCCUCGGUAAUGGCGAAUGGGACCCA [G25U C49U],0.481
15,GGCCGGCAUGGUCCCAGCCUCCUCGCUGGCGUCGGCUGGGCAACAUUCCGAGGGGACCGUCCCCUCGGUACUGGCGAAUGGGACCCA [C32U A71C],0.665
16,GGCCGGCAUGGUCCCAGCCUCCUCGCUGGCGCCGGCUGGGCAACAUUCCGAGGGGAUCGUCCCCUCGGUAUUGGCGAAUGGGACCCA [C57U A71U],1.08
17,GGCCGGCAUGGUCCCAGCCUCCUCGCUGGCGCCGACUGGGCAACAUUCCGAGGGGACCGUCCCCUCGAUAAUGGCGAAUGGGACCCA [G35A G68A],0.496
18,GGCCGGCAUGGUCCCAGCCUCCUCGCUGGCGCCGUCUGGGCAACAUUCCGAUGGGACCGUCCCCUCGGUAAUGGCGAAUGGGACCCA [G35U G52U],0.459
19,GGCCGGCAUGGUCCCAGCCUCCUCGCUGGCGCCGGCUGGGCAACAUUCCGAGGGGACCGUCCCCAUGGUAAUGGCGAAUGGGACCCA [U65A C66U],0.812
20,GGCCGGCAUGGUCCGAGCCUCCUCGCUGGCGCCAGCUGGGCAACAUUCCGAGGGGACCGUCCCCUCGGUAAUGGCGAAUGGGACCCA [C15G G34A],0.237
21,GGCCGGCAUGGUCCGAGCCUCCUCGCUGGCGCCGGCUGGGCAACAUUCCGAGGGGACCGUCCCCUCUGUAAUGGCGAAUGGGACCCA [C15G G67U],0.475
22,GGCCGGCAUGGUCCCAGCCUCCUCGCUGGCGCCGGCUGGGCAACGUUCCGAGGGGACCGUCCCCUCGGUAAUGGUGAAUGGGACCCA [A45G C75U],0.208

row,Variant,self-cleavage
1,GGCCGGCAUGGUCCCAGCCUCCUCGCUGGCGGCGGCUGGGCAACAUUCCGAGGGGAGCGUCCCCUCGGUAAUGGCGAAUGGGACCCA [C32G C57G],0.225
2,GGCCGGCAUGGUCCCAGCCUCCUCGCGGGCGCCGGCUGGGCAACAUUCCGAGGGGACCGUCCCCGCGGUAAUGGCGAAUGGGACCCA [U27G U65G],0.95
3,GGGCGGCAUGGUCCCAGCCUCCUCGCUGGCGCCGGCUGGGCAACAUUCCGAGGGGACCGUCCCCUCGGUAAUGGCGAAUGGGACCCA [C3G],0.753
4,GGCCGGCAUGGUCCCAGCCUCCUCGCUGGCGCCGGCGGGGAAACAUUCCGAGGGGACCGUCCCCUCGGUAAUGGCGAAUGGGACCCA [U37G C41A],0
5,GGCCGGCAUGGUCCCAGCCUCCUCGCUGGCGCCGGCUGGGCAACAUUCCGAGGGGACCAUCCCCUCGGUAAUGUCGAAUGGGACCCA [G59A G74U],0.561
6,GGCCGGCAUGGUCCCAGCCUCCUCGCUCGCGCCGGCUGGGCAACAUUCCGAGGGGACCGUCCCCUGGGUAAUGGCGAAUGGGACCCA [G28C C66G],0.13
7,GGCCGGUAUGGUCCCAGCCUCCUCGCUGGCGCCGGCUGGGCAACAUUCCGAGGGGACCGUCCCCUAGGUAAUGGCGAAUGGGACCCA [C7U C66A],0.776
8,GGCCGGCAUGGUCCCAGCCUCCUCGCUGGCGCCGGCUGGGCAACAAUCCGACGGGACCGUCCCCUCGGUAAUGGCGAAUGGGACCCA [U46A G52C],0.759
9,GGCCGGCAUGGUCCCAGCCUCCUCGCUGGCGCCGGCUGGGCAACAUUCCGAGGGGACCGUCCCCUCGGUAAUGGCUAAUGGGAACCA [G76U C84A],0.906
10,GGCCGGCAUGGUCCCAGCCUCCUCGCUGGUGCCGGCUGGGCAACAUUCCGAGGGGACCGUCCCCUCGGUAAUGGCGAAUGGGUCCCA [C30U A83U],0.151
11,GGCCGGCAUGGUCCCAGCCUCCUCCCUGGCGCCGGCUGGGCAACAUUCCGAGGGGACCGUCCCCUCGGUAAUCGCGAAUGGGACCCA [G25C G73C],0.0773
12,GGCCGGCAUGGUCGCAGCCUCCUAGCUGGCGCCGGCUGGGCAACAUUCCGAGGGGACCGUCCCCUCGGUAAUGGCGAAUGGGACCCA [C14G C24A],0.378
13,GGCCGGCAUGGUCCCAGCCUCCUCGCUGGCGCCGGCUGGGCAACAUUCCGAGGGGACGGUCCCCUCGGUAGUGGCGAAUGGGACCCA [C58G A71G],1.07
14,GGCCGGCAUGGUCCCAGCCUCCCCGCUGGCGCCGGCUCGGCAACAUUCCGAGGGGACCGUCCCCUCGGUAAUGGCGAAUGGGACCCA [U23C G38C],0.277
15,GGCCGGCAUGGUCCCAGCCUCCUCUCUGGCGGCGGCUGGGCAACAUUCCGAGGGGACCGUCCCCUCGGUAAUGGCGAAUGGGACCCA [G25U C32G],0.0222
16,GGCCGGCAUGGUCCCAGCCUCCUCGCUGACGCCGGCUGGGGAACAUUCCGAGGGGACCGUCCCCUCGGUAAUGGCGAAUGGGACCCA [G29A C41G],0.0339
17,GGCCGGCAUGGUCCCAGCCUCCUCGCUGGCGACGGCUGGGCAACAUACCGAGGGGACCGUCCCCUCGGUAAUGGCGAAUGGGACCCA [C32A U47A],0.322
18,GGCCGGCAUAGUCCCAGCCUCCUCGCUGGCGCCGGCUGGGCAACAUUCCGAGGGGACCGUCCCCUCGGUAAUGGCGAAAGGGACCCA [G10A U79A],0.302
19,GGCCGGCAUCGUCCCAGCCUCCUCGCUGGCGCCGGCUGGGCAACAUUGCGAGGGGACCGUCCCCUCGGUAAUGGCGAAUGGGACCCA [G10C C48G],1.17
20,GGCCGGCACGGUCCCAGCCUCCUCGCUGGCGCCGGCUGGGCAACAUUCCGAGGGGACCGUCCCCUCGUUAAUGGCGAAUGGGACCCA [U9C G68U],0.655
21,GGCCAGCAUGGUCCCAGCCUCCUCGCUGGCGCCGGCUGGGCAACAUUCCGAGGGGACCGUCCCCUCGGUAAUGGGGAAUGGGACCCA [G5A C75G],0
22,GGCCCGCAUGGUCCCAGCCUCCUCGCUGGCGCCGGCUGGGCAACAUUCCGAGGGGACCGUCCCCUCGGUAAUGGCGCAUGGGACCCA [G5C A77C],0

row,Variant,self-cleavage
1,AGCCGGCAUGGUCCCAGCCUCCUCGCUGGCGCCGGCUGGGCAACAUUCCGAGGGGACCGUCCCCUCGGUAAUGGCGAAUCGGACCCA [G1A G80C],0.119
2,GGCCGGCAUGGUCCCAGCCUCCUCGCUGGCGCCGGCUGGGCAACAUUCCGAGGGGAGCGUCCCCUCGGUAAUAGCGAAUGGGACCCA [C57G G73A],0.658
3,GGCCGGCAUGGUCCCAGCCGCCUCGCUGGCGCCGGCUGGGCAACAUUCCGAGGGGAACGUCCCCUCGGUAAUGGCGAAUGGGACCCA [U20G C57A],0.111
4,GGCCGGCAUGGUCCCAGACUCCUCGCUGGCGCCGGCUGGGCAACAUUCCGAGGGGUCCGUCCCCUCGGUAAUGGCGAAUGGGACCCA [C18A A56U],0.222
5,GGCCGGCAUCGUCCCAGCCUCCUCGCUGGCGCCGGCUGGGCAACAUUACGAGGGGACCGUCCCCUCGGUAAUGGCGAAUGGGACCCA [G10C C48A],0.853
6,GGCCGGCAUGGUCCCAGCCUCCUCGCUGGCGCCGGCUGGGCAACAUUCCGAAGGGACCGUCCCCUCGGUAAAGGCGAAUGGGACCCA [G52A U72A],0.423
7,GGCCGGCAUGGUCCCACCCUCCUCGCUGGCGCCGGCUGGGCAACAUUCCGAGGGGACCGUCCCCUCGGUAAUGGCGAACGGGACCCA [G17C U79C],0.427
8,GGCCGGCAUGGUCCCAGCCUCUUCGCUGGCGCCGGCUGGGCAACAUUCCGAGGGGACCGUCCACUCGGUAAUGGCGAAUGGGACCCA [C22U C63A],0.697
9,GGCCGGCAAGGUCCCAGCCUCCUCGCUGGCGCCGGCUGGGCAACAUUCCGAGGGGACCGUCCCCUCGCUAAUGGCGAAUGGGACCCA [U9A G68C],1.16
10,GGCCGGCAUGGUCCCAGCCUCCUCGCUGGCGCCGGCUGGGCAACGUUCCGAGGGGACCGUCCCCUCGGUAAGGGCGAAUGGGACCCA [A45G U72G],0.68
11,GGCCGGCAUGGUCCCAGCCUCCUCGCUGGCGCCGGCUGGGCAACAUUCCGAGGGGACCCUCCCCUCGGUAACGGCGAAUGGGACCCA [G59C U72C],0.917
12,GGCCGGCAUGGUCCCAGCCUCCUCGCUGGCGCCGGCUGGGCACCAUGCCGAGGGGACCGUCCCCUCGGUAAUGGCGAAUGGGACCCA [A43C U47G],0.302
13,UGCCGGCAUGGUCCCAGCCUCCUCGCUGGCGCCGGCUGGGCAACAUUCCGAGGGUACCGUCCCCUCGGUAAUGGCGAAUGGGACCCA [G1U G55U],0.455
14,GGCCGGCAUGGUCGCAGCCUCCUCGCUGGCGCCGGCUGGGCAACAUUCCGAGGGGACCGUCCCCUCGGUAAUGGCGAAUGGGACCAA [C14G C86A],1.03
15,GGCCGGCACGGUCCCAGCCUCCUCGCUGGCGCCGGCUGGGCAACAUUCCGAGGGGACCGGCCCCUCGGUAAUGGCGAAUGGGACCCA [U9C U60G],0.723
16,GGCCGGCAUGGUCCCAGCCUCCUCGCUGGCGCCGGCUGGGCAAUAUUCCGAGGGGACCGUCCCCUCGGUAAUCGCGAAUGGGACCCA [C44U G73C],0.47
17,GGCCGGGAUGGUCCCAGCCUCCUCGCUGGCGCCGGCUGGGCAACAUUACGAGGGGACCGUCCCCUCGGUAAUGGCGAAUGGGACCCA [C7G C48A],0.262
18,GGCCGGCAUGGUCUCAGCCUCCUCGCUGGCGCCGGCUGGGCAACAUUCCGUGGGGACCGUCCCCUCGGUAAUGGCGAAUGGGACCCA [C14U A51U],1.14
19,GGCCGGCAUCGUCCCAGCCUCCUCGCUGGCGCCGGCUGGGCAACAUUCCGAGGGGACCGUCCCCUCGGUAAUGGCGAGUGGGACCCA [G10C A78G],0.399
20,GGCUGGCAUGGUCCCAGCCUCCUCGCUGGCGCCGGCUGGGCAACAUUCCGAGGGGACGGUCCCCUCGGUAAUGGCGAAUGGGACCCA [C4U C58G],0.615
